Assay results reported in PMC3161976.

Assays:
[1] = target: GST-Tnp3 (Transportin 3), full length (human) (UniProt Q9Y5L0); assay: pull-down; GST-Tnp3, GST-Tnp3 DC825 or GST-Xpo-t held on glutathione-Sepharose 4B beads, with purified HIV-1 vector disrupted by gentle sonication (50 µl), with or without RanQ69L-GTP; binding buffer 50 mM Hepes pH 7.3, 200 mM NaCl, 2 mM Mg(Ac)2, 10 µM GTP; 4°C; silver stain and Western blot with anti-capsid antibody, ImageJ quantification
[2] = target: GST-Tnp3 DC825 deletion mutant (human) (UniProt Q9Y5L0); assay: as above
Sequence of GST-Tnp3 DC825 deletion mutant (human) (Q9Y5L0 1-825, stated change not applied): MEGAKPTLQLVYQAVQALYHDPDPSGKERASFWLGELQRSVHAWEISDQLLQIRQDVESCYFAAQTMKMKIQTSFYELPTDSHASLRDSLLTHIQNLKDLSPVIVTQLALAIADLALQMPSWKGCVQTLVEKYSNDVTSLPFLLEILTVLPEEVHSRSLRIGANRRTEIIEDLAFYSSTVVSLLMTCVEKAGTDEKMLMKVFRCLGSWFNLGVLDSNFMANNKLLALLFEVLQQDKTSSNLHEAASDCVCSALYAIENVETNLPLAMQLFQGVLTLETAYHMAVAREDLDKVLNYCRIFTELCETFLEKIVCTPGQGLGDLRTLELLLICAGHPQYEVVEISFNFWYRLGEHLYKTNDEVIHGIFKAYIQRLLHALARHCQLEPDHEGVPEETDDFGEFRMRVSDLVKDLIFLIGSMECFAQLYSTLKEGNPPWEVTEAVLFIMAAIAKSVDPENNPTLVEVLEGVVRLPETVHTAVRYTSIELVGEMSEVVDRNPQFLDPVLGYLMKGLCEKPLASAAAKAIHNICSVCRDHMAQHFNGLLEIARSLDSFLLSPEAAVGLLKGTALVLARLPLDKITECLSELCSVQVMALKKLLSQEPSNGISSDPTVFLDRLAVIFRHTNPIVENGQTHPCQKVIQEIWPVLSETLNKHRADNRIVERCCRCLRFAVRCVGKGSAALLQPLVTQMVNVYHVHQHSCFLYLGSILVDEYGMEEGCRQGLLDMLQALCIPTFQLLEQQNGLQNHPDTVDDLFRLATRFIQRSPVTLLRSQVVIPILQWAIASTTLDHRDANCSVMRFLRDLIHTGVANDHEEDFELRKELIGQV

Sequence of GST-Tnp3 (Transportin 3), full length (human) (Q9Y5L0 whole entry): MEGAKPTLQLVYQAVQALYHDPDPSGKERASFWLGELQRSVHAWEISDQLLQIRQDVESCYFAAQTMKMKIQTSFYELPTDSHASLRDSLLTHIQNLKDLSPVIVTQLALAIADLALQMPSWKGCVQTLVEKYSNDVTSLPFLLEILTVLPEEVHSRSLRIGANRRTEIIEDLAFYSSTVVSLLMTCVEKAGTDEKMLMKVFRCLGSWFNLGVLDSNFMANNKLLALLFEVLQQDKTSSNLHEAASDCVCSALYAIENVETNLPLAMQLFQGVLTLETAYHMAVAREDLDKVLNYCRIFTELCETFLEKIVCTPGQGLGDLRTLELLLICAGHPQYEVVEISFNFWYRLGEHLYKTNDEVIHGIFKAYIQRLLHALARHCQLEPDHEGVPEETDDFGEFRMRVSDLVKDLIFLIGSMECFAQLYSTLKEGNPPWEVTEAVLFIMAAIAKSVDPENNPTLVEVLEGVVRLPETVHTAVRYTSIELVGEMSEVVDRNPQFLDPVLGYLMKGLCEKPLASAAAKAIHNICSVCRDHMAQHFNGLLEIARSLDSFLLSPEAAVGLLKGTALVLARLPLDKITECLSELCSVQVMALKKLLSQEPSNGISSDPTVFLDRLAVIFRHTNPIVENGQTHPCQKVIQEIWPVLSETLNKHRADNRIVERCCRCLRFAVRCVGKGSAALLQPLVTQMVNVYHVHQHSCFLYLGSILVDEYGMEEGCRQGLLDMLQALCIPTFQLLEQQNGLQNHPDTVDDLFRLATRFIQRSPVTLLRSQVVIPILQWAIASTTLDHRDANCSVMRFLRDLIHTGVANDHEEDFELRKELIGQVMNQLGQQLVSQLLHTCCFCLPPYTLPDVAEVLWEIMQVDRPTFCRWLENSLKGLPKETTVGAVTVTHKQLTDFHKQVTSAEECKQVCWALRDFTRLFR

## HIV-1 capsid protein (CA, p24) of purified HIV-1 vector particles (natural protein)
[1]
  fold increase of binding with RanGTP against without: 2.5 fold
[2]
  fold reduction of binding against full-length Tnp3: 3 fold
